Data on 4 molecules can be found in PMC11765556, “Cytosine Methylation Changes the Preferred Cis-Regulatory Configuration of Arabidopsis WUSCHEL-Related Homeobox 14”.

Data set [1] has as its target T1, AtWOX14 (homodimer on DNA) (Arabidopsis thaliana, UniProt Q9LM84 1-211).
T1 sequence: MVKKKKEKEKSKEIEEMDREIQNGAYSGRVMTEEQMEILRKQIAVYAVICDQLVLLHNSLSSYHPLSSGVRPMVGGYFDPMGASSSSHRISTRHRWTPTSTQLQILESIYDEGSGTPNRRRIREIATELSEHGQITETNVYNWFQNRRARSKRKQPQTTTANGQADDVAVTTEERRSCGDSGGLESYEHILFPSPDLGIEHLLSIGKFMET
As to the kind of experiment: EMSA; 25-200 nM WOX14; dimeric shift; EMSA: 10 mM Tris (pH not stated), 50 mM NaCl, 1 mM MgCl2, 4% glycerol, 0.5 mM EDTA, 25 C 40 min, 30 ng probe in 20 uL; 6% native PAGE, 0.5x TBE, 4 C. To be noted: protein: recombinant; tags: N-terminal His (pETG20A-His); chain copies: 2. For orientation: A gel shift assay detects complexes by their altered migration in electrophoresis.

Data set [2] has as its target T2, AtWOX14 (monomer) (Arabidopsis thaliana, UniProt Q9LM84 1-211).
T2 sequence: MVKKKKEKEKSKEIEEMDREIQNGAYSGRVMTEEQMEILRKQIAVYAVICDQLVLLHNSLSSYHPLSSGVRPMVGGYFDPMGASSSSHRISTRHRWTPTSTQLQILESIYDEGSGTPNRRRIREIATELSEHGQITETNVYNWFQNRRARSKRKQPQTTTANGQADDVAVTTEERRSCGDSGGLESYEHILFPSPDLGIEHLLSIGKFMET
Description: EMSA; 50-200 nM WOX14; monomeric shift; EMSA: 10 mM Tris (pH not stated), 50 mM NaCl, 1 mM MgCl2, 4% glycerol, 0.5 mM EDTA, 25 C 40 min, 30 ng probe in 20 uL; 6% native PAGE, 0.5x TBE, 4 C. To be noted: protein: recombinant; tags: N-terminal His (pETG20A-His).

Data set [3] concerns the target T1, AtWOX14 (homodimer on DNA). Description: EMSA; 50-200 nM WOX14; dimeric shift at high protein; EMSA: 10 mM Tris (pH not stated), 50 mM NaCl, 1 mM MgCl2, 4% glycerol, 0.5 mM EDTA, 25 C 40 min, 30 ng probe in 20 uL; 6% native PAGE, 0.5x TBE, 4 C. To be noted: protein: recombinant; tags: N-terminal His (pETG20A-His); chain copies: 2.

B1: ER0-AT1G15640 (dsDNA)
DNA 1: AATAAGATGTACCCAATGATTGCAATGATGAGCCCAATGAGTGC
DNA 2: GCACTCATTGGGCTCATCATTGCAATCATTGGGTACATCTTATT
On to B1, for which, in data set [1], the binding result was “binds”.

B2: ER1 (dsDNA)
DNA 1: ATGCTAGCTCCATCTGTGATTGACAATCAATGGCGGTGACGTACT
DNA 2: AGTACGTCACCGCCATTGATTGTCAATCACAGATGGAGCTAGCAT
Consider B2, for which the binding result in data set [2] and in data set [3] was “binds” throughout.

B3: ER0 (dsDNA)
DNA 1: ATGCTAGCTCCATCTGTGATTGCAATCAATGGCGGTGACGTACT
DNA 2: AGTACGTCACCGCCATTGATTGCAATCACAGATGGAGCTAGCAT
As to B3, the binding result in data set [2] and in data set [3] was “binds” in each case.

B4: M1 (dsDNA)
DNA 1: ATGCTAGCTCCATCTGTATTGATTGTTTATGGCGGTGACGTACT
DNA 2: AGTACGTCACCGCCATAAACAATCAATACAGATGGAGCTAGCAT
On to B4, for which the binding result in data set [2] is “binds”.
